Assay results as given in the supplement of paper PMC10567573.

B1: FBXO39 (parent)
chain: RVFKARIYTNRYETNEEDKTLQEI

Variants of: B1
Assay: protein stability index of a GFP-peptide fusion (GPS, HEK-293T) (PSI 1-6); higher = more stable
Settings: c terminus: a fixed tail appended
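Further: lentivirally expressed fusions sorted by FACS into six bins by GFP to DsRed ratio, PSI derived from sequencing read proportions per bin multiplied by bin number.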

**Q.** For RFFKARIYTNRYETNEEDKTLQEI [V2F], which protein stability index is on record?
**A.** 3.18

**Q.** With RGFKARIYTNRYETNEEDKTLQEI [V2G] as the variant, how does the protein stability index read?
**A.** 3.69

**Q.** With RHFKARIYTNRYETNEEDKTLQEI [V2H] as the variant, how does the protein stability index read?
**A.** 3.85

**Q.** With RIFKARIYTNRYETNEEDKTLQEI [V2I] as the variant, how does the protein stability index read?
**A.** 2.51

**Q.** Which protein stability index does the source give for RKFKARIYTNRYETNEEDKTLQEI [V2K] here?
**A.** 3.36

**Q.** Which protein stability index does the source give for RLFKARIYTNRYETNEEDKTLQEI [V2L] here?
**A.** 3.19

**Q.** For RMFKARIYTNRYETNEEDKTLQEI [V2M], which protein stability index is on record?
**A.** 3.98

**Q.** For RNFKARIYTNRYETNEEDKTLQEI [V2N], which protein stability index is on record?
**A.** 4.09

**Q.** Which protein stability index does the source give for RPFKARIYTNRYETNEEDKTLQEI [V2P] here?
**A.** 4.56

**Q.** For RQFKARIYTNRYETNEEDKTLQEI [V2Q], which protein stability index is on record?
**A.** 3.37

**Q.** With RRFKARIYTNRYETNEEDKTLQEI [V2R] as the variant, how does the protein stability index read?
**A.** 4.24

**Q.** Which protein stability index does the source give for RSFKARIYTNRYETNEEDKTLQEI [V2S] here?
**A.** 4.22

**Q.** Which protein stability index does the source give for RTFKARIYTNRYETNEEDKTLQEI [V2T] here?
**A.** 2.89

**Q.** Which protein stability index does the source give for RWFKARIYTNRYETNEEDKTLQEI [V2W] here?
**A.** 2.45

**Q.** Which protein stability index does the source give for RVAKARIYTNRYETNEEDKTLQEI [F3A] here?
**A.** 4.19

**Q.** With RVCKARIYTNRYETNEEDKTLQEI [F3C] as the variant, how does the protein stability index read?
**A.** 2.82

**Q.** Which protein stability index does the source give for RVDKARIYTNRYETNEEDKTLQEI [F3D] here?
**A.** 5.46

**Q.** Which protein stability index does the source give for RVEKARIYTNRYETNEEDKTLQEI [F3E] here?
**A.** 5.23

**Q.** Which protein stability index does the source give for RVGKARIYTNRYETNEEDKTLQEI [F3G] here?
**A.** 4.12

**Q.** With RVHKARIYTNRYETNEEDKTLQEI [F3H] as the variant, how does the protein stability index read?
**A.** 4.63

**Q.** Which protein stability index does the source give for RVIKARIYTNRYETNEEDKTLQEI [F3I] here?
**A.** 4.61

**Q.** Which protein stability index does the source give for RVKKARIYTNRYETNEEDKTLQEI [F3K] here?
**A.** 4.32

**Q.** For RVLKARIYTNRYETNEEDKTLQEI [F3L], which protein stability index is on record?
**A.** 3.05

**Q.** For RVMKARIYTNRYETNEEDKTLQEI [F3M], which protein stability index is on record?
**A.** 4.41

**Q.** With RVNKARIYTNRYETNEEDKTLQEI [F3N] as the variant, how does the protein stability index read?
**A.** 4.76

**Q.** Which protein stability index does the source give for RVPKARIYTNRYETNEEDKTLQEI [F3P] here?
**A.** 4.55

**Q.** For RVQKARIYTNRYETNEEDKTLQEI [F3Q], which protein stability index is on record?
**A.** 4.59

**Q.** For RVRKARIYTNRYETNEEDKTLQEI [F3R], which protein stability index is on record?
**A.** 4.71

**Q.** With RVSKARIYTNRYETNEEDKTLQEI [F3S] as the variant, how does the protein stability index read?
**A.** 4.54

**Q.** With RVTKARIYTNRYETNEEDKTLQEI [F3T] as the variant, how does the protein stability index read?
**A.** 4.88

**Q.** For RVVKARIYTNRYETNEEDKTLQEI [F3V], which protein stability index is on record?
**A.** 4.15

**Q.** With RVWKARIYTNRYETNEEDKTLQEI [F3W] as the variant, how does the protein stability index read?
**A.** 2.65

**Q.** For RVYKARIYTNRYETNEEDKTLQEI [F3Y], which protein stability index is on record?
**A.** 2.59

**Q.** With RVFAARIYTNRYETNEEDKTLQEI [K4A] as the variant, how does the protein stability index read?
**A.** 2.55

**Q.** With RVFCARIYTNRYETNEEDKTLQEI [K4C] as the variant, how does the protein stability index read?
**A.** 2.83

**Q.** With RVFDARIYTNRYETNEEDKTLQEI [K4D] as the variant, how does the protein stability index read?
**A.** 4.08

**Q.** For RVFEARIYTNRYETNEEDKTLQEI [K4E], which protein stability index is on record?
**A.** 3.81

**Q.** Which protein stability index does the source give for RVFFARIYTNRYETNEEDKTLQEI [K4F] here?
**A.** 2.03

**Q.** With RVFGARIYTNRYETNEEDKTLQEI [K4G] as the variant, how does the protein stability index read?
**A.** 3.59

**Q.** For RVFHARIYTNRYETNEEDKTLQEI [K4H], which protein stability index is on record?
**A.** 3.52

**Q.** Which protein stability index does the source give for RVFIARIYTNRYETNEEDKTLQEI [K4I] here?
**A.** 1.88

**Q.** Which protein stability index does the source give for RVFLARIYTNRYETNEEDKTLQEI [K4L] here?
**A.** 1.99

**Q.** Which protein stability index does the source give for RVFMARIYTNRYETNEEDKTLQEI [K4M] here?
**A.** 2.65

**Q.** For RVFNARIYTNRYETNEEDKTLQEI [K4N], which protein stability index is on record?
**A.** 3.6

**Q.** For RVFPARIYTNRYETNEEDKTLQEI [K4P], which protein stability index is on record?
**A.** 4.27

**Q.** With RVFQARIYTNRYETNEEDKTLQEI [K4Q] as the variant, how does the protein stability index read?
**A.** 4.48

**Q.** Which protein stability index does the source give for RVFRARIYTNRYETNEEDKTLQEI [K4R] here?
**A.** 3.12

**Q.** With RVFSARIYTNRYETNEEDKTLQEI [K4S] as the variant, how does the protein stability index read?
**A.** 3.6

**Q.** With RVFTARIYTNRYETNEEDKTLQEI [K4T] as the variant, how does the protein stability index read?
**A.** 4.72

**Q.** For RVFVARIYTNRYETNEEDKTLQEI [K4V], which protein stability index is on record?
**A.** 2.16

**Q.** For RVFYARIYTNRYETNEEDKTLQEI [K4Y], which protein stability index is on record?
**A.** 2.11

**Q.** With RVFKCRIYTNRYETNEEDKTLQEI [A5C] as the variant, how does the protein stability index read?
**A.** 3.51

**Q.** For RVFKDRIYTNRYETNEEDKTLQEI [A5D], which protein stability index is on record?
**A.** 4.39

**Q.** Which protein stability index does the source give for RVFKERIYTNRYETNEEDKTLQEI [A5E] here?
**A.** 4.48

**Q.** With RVFKFRIYTNRYETNEEDKTLQEI [A5F] as the variant, how does the protein stability index read?
**A.** 1.63

**Q.** With RVFKGRIYTNRYETNEEDKTLQEI [A5G] as the variant, how does the protein stability index read?
**A.** 3.1

**Q.** With RVFKHRIYTNRYETNEEDKTLQEI [A5H] as the variant, how does the protein stability index read?
**A.** 3.04

**Q.** For RVFKIRIYTNRYETNEEDKTLQEI [A5I], which protein stability index is on record?
**A.** 2.2

**Q.** For RVFKKRIYTNRYETNEEDKTLQEI [A5K], which protein stability index is on record?
**A.** 2.69

**Q.** For RVFKLRIYTNRYETNEEDKTLQEI [A5L], which protein stability index is on record?
**A.** 3.33

**Q.** Which protein stability index does the source give for RVFKMRIYTNRYETNEEDKTLQEI [A5M] here?
**A.** 3.02

**Q.** With RVFKNRIYTNRYETNEEDKTLQEI [A5N] as the variant, how does the protein stability index read?
**A.** 3.95

**Q.** Which protein stability index does the source give for RVFKPRIYTNRYETNEEDKTLQEI [A5P] here?
**A.** 3.05

**Q.** With RVFKQRIYTNRYETNEEDKTLQEI [A5Q] as the variant, how does the protein stability index read?
**A.** 2.7

**Q.** With RVFKRRIYTNRYETNEEDKTLQEI [A5R] as the variant, how does the protein stability index read?
**A.** 3.49

**Q.** Which protein stability index does the source give for RVFKSRIYTNRYETNEEDKTLQEI [A5S] here?
**A.** 2.71

**Q.** Which protein stability index does the source give for RVFKTRIYTNRYETNEEDKTLQEI [A5T] here?
**A.** 2.1

**Q.** With RVFKVRIYTNRYETNEEDKTLQEI [A5V] as the variant, how does the protein stability index read?
**A.** 1.67

**Q.** For RVFKWRIYTNRYETNEEDKTLQEI [A5W], which protein stability index is on record?
**A.** 2.34

**Q.** Which protein stability index does the source give for RVFKYRIYTNRYETNEEDKTLQEI [A5Y] here?
**A.** 2.19

**Q.** Which protein stability index does the source give for RVFKAAIYTNRYETNEEDKTLQEI [R6A] here?
**A.** 3.66

**Q.** For RVFKACIYTNRYETNEEDKTLQEI [R6C], which protein stability index is on record?
**A.** 2.77

**Q.** Which protein stability index does the source give for RVFKADIYTNRYETNEEDKTLQEI [R6D] here?
**A.** 4.04

**Q.** Which protein stability index does the source give for RVFKAEIYTNRYETNEEDKTLQEI [R6E] here?
**A.** 4.25

**Q.** Which protein stability index does the source give for RVFKAFIYTNRYETNEEDKTLQEI [R6F] here?
**A.** 1.41

**Q.** With RVFKAGIYTNRYETNEEDKTLQEI [R6G] as the variant, how does the protein stability index read?
**A.** 3.7

**Q.** For RVFKAHIYTNRYETNEEDKTLQEI [R6H], which protein stability index is on record?
**A.** 2.83

**Q.** Which protein stability index does the source give for RVFKAIIYTNRYETNEEDKTLQEI [R6I] here?
**A.** 1.9

**Q.** Which protein stability index does the source give for RVFKAKIYTNRYETNEEDKTLQEI [R6K] here?
**A.** 3.01

**Q.** Which protein stability index does the source give for RVFKAMIYTNRYETNEEDKTLQEI [R6M] here?
**A.** 1.99

**Q.** For RVFKANIYTNRYETNEEDKTLQEI [R6N], which protein stability index is on record?
**A.** 3.72

**Q.** Which protein stability index does the source give for RVFKAPIYTNRYETNEEDKTLQEI [R6P] here?
**A.** 4.08

**Q.** Which protein stability index does the source give for RVFKAQIYTNRYETNEEDKTLQEI [R6Q] here?
**A.** 3.71

**Q.** For RVFKASIYTNRYETNEEDKTLQEI [R6S], which protein stability index is on record?
**A.** 3.37

**Q.** For RVFKATIYTNRYETNEEDKTLQEI [R6T], which protein stability index is on record?
**A.** 3.79

**Q.** With RVFKAVIYTNRYETNEEDKTLQEI [R6V] as the variant, how does the protein stability index read?
**A.** 2.21

**Q.** Which protein stability index does the source give for RVFKAWIYTNRYETNEEDKTLQEI [R6W] here?
**A.** 1.92

**Q.** For RVFKAYIYTNRYETNEEDKTLQEI [R6Y], which protein stability index is on record?
**A.** 2.62

**Q.** Which protein stability index does the source give for RVFKARAYTNRYETNEEDKTLQEI [I7A] here?
**A.** 3.14

**Q.** With RVFKARCYTNRYETNEEDKTLQEI [I7C] as the variant, how does the protein stability index read?
**A.** 2.74

**Q.** For RVFKARDYTNRYETNEEDKTLQEI [I7D], which protein stability index is on record?
**A.** 4.26

**Q.** For RVFKAREYTNRYETNEEDKTLQEI [I7E], which protein stability index is on record?
**A.** 3.24

**Q.** For RVFKARFYTNRYETNEEDKTLQEI [I7F], which protein stability index is on record?
**A.** 2.67

**Q.** Which protein stability index does the source give for RVFKARGYTNRYETNEEDKTLQEI [I7G] here?
**A.** 3.64
